Paper PMC3350598 (Structure(London, England:1993), 2012)

T1: Broxl, long form of the human Brox protein (residues 2-411) (human, UniProt Q5VW32 2-411)
T1 sequence (looked up): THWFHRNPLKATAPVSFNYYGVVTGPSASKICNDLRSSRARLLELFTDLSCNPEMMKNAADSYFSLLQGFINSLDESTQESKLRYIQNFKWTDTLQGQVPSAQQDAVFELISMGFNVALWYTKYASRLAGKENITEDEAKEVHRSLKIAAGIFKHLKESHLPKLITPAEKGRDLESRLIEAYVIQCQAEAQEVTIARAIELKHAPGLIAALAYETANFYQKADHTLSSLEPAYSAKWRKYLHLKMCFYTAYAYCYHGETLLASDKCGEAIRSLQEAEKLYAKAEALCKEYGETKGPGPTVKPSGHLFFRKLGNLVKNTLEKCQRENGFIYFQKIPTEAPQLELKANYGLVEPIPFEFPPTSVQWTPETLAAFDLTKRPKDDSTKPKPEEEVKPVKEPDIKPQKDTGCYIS

T2: Broxs, short form of the human Brox protein (residues 2-377) (human, UniProt Q5VW32 2-377)
T2 sequence (looked up): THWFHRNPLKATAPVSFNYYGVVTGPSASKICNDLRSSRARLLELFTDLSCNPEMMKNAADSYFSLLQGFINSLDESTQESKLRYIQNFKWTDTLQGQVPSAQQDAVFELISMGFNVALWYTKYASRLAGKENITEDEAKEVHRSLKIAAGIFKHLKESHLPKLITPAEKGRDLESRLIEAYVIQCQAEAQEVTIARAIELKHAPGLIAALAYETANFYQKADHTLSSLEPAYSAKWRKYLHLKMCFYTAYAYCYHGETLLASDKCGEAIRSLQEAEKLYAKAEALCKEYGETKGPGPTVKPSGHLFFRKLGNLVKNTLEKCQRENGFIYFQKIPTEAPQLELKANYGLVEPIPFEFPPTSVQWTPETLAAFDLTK

B1: C-terminal fragment of human CHMP5 (residues 151-219) (domain or fragment, UniProt Q9NZZ3 151-219, looked up)
chain: RSYGTPELDEDDLEAELDALGDELLADEDSSYLDEAASAPAIPEGVPTDTKNKDGVLVDEFGLPQIPAS

Experiments:
[1] = biological target: T1, Broxl, long form of the human Brox …; test: crystal structure
[2] = biological target: T2, Broxs, short form of the human Brox …; test: crystal structure

Binder | binding result [1] | binding result [2]
B1 | binds | binds
TKNKDGVLVDEFGLPQIPAS [synthesized peptide corresponding to the CHMP5 C-terminal 20 residues] | binds | binds
